The target of this data set is T1, EnrR (crystal) (Edwardsiella piscicida EIB202, UniProt A0AAQ3C0I8 1-90).
T1 sequence: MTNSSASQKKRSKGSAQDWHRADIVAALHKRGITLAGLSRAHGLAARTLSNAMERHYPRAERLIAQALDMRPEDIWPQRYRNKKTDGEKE
Nature of the data set: X-ray crystallography.

B1: DNA1 (dsDNA)
DNA 1: CGAAATATCTATAGATATTTCG
DNA 2: CGAAATATCTATAGATATTTCG
As to B1, the binding result is “binds”.

Source of the values: PMC9023278.
